{
  "source": "FireProtDB (doi:10.1021/bi9912950)",
  "proteins": {"B1": {"name": "Oxytocin-neurophysin 1 wild type, P01175 (protein)", "chain": "MAGSSLACCLLGLLALTSACYIQNCPLGGKRAVLDLDVRTCLPCGPGGKGRCFGPSICCGDELGCFVGTAEALRCQEENYLPSPCQSGQKPCGSGGRCAAAGICCSPDGCHEDPACDPEAAFSQH"}},
  "conditions": "Bos taurus, 25 °C, CD, Ammonium acetate 0.1 M, reversible: yes, whole UniProt chain shown",
  "note": "“And” between values parts separate entries of the source, which are not always exact repeats. Equal entries are not always repeated.",
  "data": [
    {"protein": "B1", "values": [
      {"measurement": "denaturant m value", "setting": "pH 6, GdnHCl", "value": "1.6 kcal/mol/M and 1.1 kcal/mol/M"},
      {"measurement": "unfolding free energy", "setting": "pH 6, GdnHCl", "value": "6.8 kcal/mol and 3.1 kcal/mol"},
      {"measurement": "denaturant m value", "setting": "pH 8, GdnHCl", "value": "1.5 kcal/mol/M and 1.1 kcal/mol/M"},
      {"measurement": "unfolding free energy", "setting": "pH 8, GdnHCl", "value": "4.9 kcal/mol and 3 kcal/mol"},
      {"measurement": "denaturant m value", "setting": "pH 8, Urea", "value": "0.7 kcal/mol/M and 0.4 kcal/mol/M"},
      {"measurement": "unfolding free energy", "setting": "pH 8, Urea", "value": "4.4 kcal/mol and 2.4 kcal/mol"},
      {"measurement": "denaturant m value", "setting": "pH 10, GdnHCl", "value": "0.9 kcal/mol/M and 1 kcal/mol/M"},
      {"measurement": "unfolding free energy", "setting": "pH 10, GdnHCl", "value": "2.7 kcal/mol and 2.6 kcal/mol"}
    ]}
  ]
}
